From IntAct's records for PubMed 19229295

B1: Bone morphogenetic protein receptor type-1B (Homo sapiens), O00238 (parent)
chain: MLLRSAGKLNVGTKKEDGESTAPTPRPKVLRCKCHHHCPEDSVNNICSTDGYCFTMIEEDDSGLPVVTSGCLGLEGSDFQCRDTPIPHQRRSIECCTERNECNKDLHPTLPPLKNRDFVDGPIHHRALLISVTVCSLLLVLIILFCYFRYKRQETRPRYSIGLEQDETYIPPGESLRDLIEQSQSSGSGSGLPLLVQRTIAKQIQMVKQIGKGRYGEVWMGKWRGEKVAVKVFFTTEEASWFRETEIYQTVLMRHENILGFIAADIKGTGSWTQLYLITDYHENGSLYDYLKSTTLDAKSMLKLAYSSVSGLCHLHTEIFSTQGKPAIAHRDLKSKNILVKKNGTCCIADLGLAVKFISDTNEVDIPPNTRVGTKRYMPPEVLDESLNRNHFQSYIMADMYSFGLILWEVARRCVSGGIVEEYQLPYHDLVPSDPSYEDMREIVCIKKLRPSFPNRWSSDECLRQMGKLMTECWAHNPASRLTALRVKKTLAKMSESQDIKL
partner: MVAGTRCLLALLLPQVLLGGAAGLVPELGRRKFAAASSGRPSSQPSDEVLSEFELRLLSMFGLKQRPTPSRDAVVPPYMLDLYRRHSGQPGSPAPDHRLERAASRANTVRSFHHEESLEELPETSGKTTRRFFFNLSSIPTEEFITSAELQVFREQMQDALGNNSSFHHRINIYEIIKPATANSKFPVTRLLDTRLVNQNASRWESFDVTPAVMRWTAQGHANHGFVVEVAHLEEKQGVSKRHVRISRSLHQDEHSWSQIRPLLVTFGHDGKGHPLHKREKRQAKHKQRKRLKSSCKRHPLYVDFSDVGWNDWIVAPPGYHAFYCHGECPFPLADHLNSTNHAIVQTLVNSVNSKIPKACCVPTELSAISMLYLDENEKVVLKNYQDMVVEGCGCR

Variants of: B1
Details: with bmp2_human BMP2, P12643

effect of a mutation on the interaction | Variant
decreasing interaction | H35S
decreasing interaction | H36G

Variants of: B1
Details: with bmp2_human BMP2, P12643
Remark: another data set of the same source

effect of a mutation on the interaction | Variant
decreasing interaction | Q80A
